T1: 6TM/E11 6TM/E11 splice variant (Mus musculus), P42866
T1 chain: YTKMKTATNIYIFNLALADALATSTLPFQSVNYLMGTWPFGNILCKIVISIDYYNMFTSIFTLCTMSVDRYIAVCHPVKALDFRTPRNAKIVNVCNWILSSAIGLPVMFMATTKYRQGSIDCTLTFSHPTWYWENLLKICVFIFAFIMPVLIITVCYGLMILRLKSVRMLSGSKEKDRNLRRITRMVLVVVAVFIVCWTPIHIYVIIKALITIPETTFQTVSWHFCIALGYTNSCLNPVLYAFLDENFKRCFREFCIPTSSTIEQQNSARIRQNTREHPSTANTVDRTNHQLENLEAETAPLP

T2: KOR (Mus musculus), P33534
T2 chain: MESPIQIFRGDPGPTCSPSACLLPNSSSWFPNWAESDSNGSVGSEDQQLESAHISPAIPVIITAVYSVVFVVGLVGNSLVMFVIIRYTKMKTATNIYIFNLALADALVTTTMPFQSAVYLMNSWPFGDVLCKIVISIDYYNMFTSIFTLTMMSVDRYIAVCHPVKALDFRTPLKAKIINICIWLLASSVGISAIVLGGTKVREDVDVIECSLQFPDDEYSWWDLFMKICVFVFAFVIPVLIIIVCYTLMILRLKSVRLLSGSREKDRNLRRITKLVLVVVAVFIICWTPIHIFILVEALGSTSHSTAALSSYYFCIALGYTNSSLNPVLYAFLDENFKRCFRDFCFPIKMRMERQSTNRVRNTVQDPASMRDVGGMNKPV

T3: DOR (Mus musculus), P32300
T3 chain: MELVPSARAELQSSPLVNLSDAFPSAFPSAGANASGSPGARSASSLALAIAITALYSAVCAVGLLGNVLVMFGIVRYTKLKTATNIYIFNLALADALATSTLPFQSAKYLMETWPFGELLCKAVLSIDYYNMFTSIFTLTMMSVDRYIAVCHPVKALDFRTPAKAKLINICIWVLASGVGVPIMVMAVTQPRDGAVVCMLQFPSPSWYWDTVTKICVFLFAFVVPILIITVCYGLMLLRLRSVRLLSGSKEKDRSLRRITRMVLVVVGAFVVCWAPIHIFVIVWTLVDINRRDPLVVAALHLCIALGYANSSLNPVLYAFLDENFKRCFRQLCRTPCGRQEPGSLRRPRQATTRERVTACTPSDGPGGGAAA


Tests used:
Test in all cases: radioligand
Settings in all cases: modification not given
[1] = molecular target: T1, 6TM/E11 6TM/E11 splice variant (Mus …)
[2] = molecular target: T2, KOR (Mus musculus), P33534
[3] = molecular target: MOR (Mus musculus), P42866
Sequence of MOR (Mus musculus), P42866 (P42866 whole entry): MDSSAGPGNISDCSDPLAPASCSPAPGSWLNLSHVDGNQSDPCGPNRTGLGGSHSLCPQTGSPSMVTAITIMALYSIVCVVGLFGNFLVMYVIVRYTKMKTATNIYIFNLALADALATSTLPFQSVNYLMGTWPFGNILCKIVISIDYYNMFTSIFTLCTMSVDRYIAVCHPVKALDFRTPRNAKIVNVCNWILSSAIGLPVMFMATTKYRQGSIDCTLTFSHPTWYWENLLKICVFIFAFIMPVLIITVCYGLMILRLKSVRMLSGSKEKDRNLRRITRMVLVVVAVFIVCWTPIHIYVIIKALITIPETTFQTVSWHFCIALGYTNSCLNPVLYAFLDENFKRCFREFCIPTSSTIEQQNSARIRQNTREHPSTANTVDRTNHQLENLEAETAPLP

[4] = molecular target: T3, DOR (Mus musculus), P32300

Row | Binder | Ki [1] [µM] | Ki [2] [µM] | Ki [3] [µM] | Kd [4] [µM]
1 | YAFEVVG [[D-Ala2]deltorphin II] | > 1 | > 1 | > 1 | 
2 | YAFEIIG [[125I]-3 (125I-GATE3-8)] |  |  |  | 0.00011
3 | YAFEIIG [peptide 1] | > 1 | > 1 | > 1 | 

— PMC4472604
